Measured values as given in the Human Domainome abundance scans (Beltran et al. 2025).
± gives the uncertainty stated by the source.

B1: Homeobox protein SIX6, residues 134 to 184; numbered along this chain, O95475 (parent)
chain: CFKERTRHLLREWYLQDPYPNPSKKRELAQATGLTPTQVGNWFKNRRQRDR

Variants of: B1
Test: abundance fitness (aPCA) (normalised: wild type 0, dead -1); higher = more abundant; growth selection in yeast, the domain comes from the species named
Conditions: Homo sapiens

Variant	abundance fitness
P22A	-0.109 ± 0.071
P22G	0.087 ± 0.068
P22R	-0.634 ± 0.081
P22L	0.161 ± 0.076
P22I	-0.618 ± 0.36
P22F	-0.241 ± 0.1
P22C	0.146 ± 0.19
P22T	-0.076 ± 0.14
P22V	-0.682 ± 0.16
P22D	0.307 ± 0.14
P22S	0.015 ± 0.081
P22K	-0.833 ± 0.29
P22Y	-0.424 ± 0.38
P22W	-0.281 ± 0.15
P22E	0.104 ± 0.088
P22Q	-0.352 ± 0.17
P22H	-0.467 ± 0.11
N21L	-0.149 ± 0.072
N21D	0.218 ± 0.094
N21G	-0.238 ± 0.1
N21K	-0.417 ± 0.35
N21R	-0.437 ± 0.12
N21Q	-0.105 ± 0.076
N21W	-0.817 ± 0.22

Variant	abundance fitness
N21H	0.337 ± 0.16
N21T	0.155 ± 0.049
N21V	-0.199 ± 0.1
N21I	-0.672 ± 0.47
N21S	-0.071 ± 0.098
N21C	-0.079 ± 0.073
N21M	-0.049 ± 0.26
N21Y	-0.725 ± 0.33
N21P	-0.505 ± 0.4
N21E	-0.129 ± 0.2
N21A	-0.222 ± 0.099
N21F	-0.839 ± 0.071
A29E	-0.815 ± 0.16
A29H	-0.944 ± 0.15
A29P	-0.916 ± 0.2
A29G	-0.397 ± 0.062
A29R	-0.982 ± 0.11
A29W	-0.923 ± 0.13
A29T	-1.07 ± 0.23
A29F	-1.07 ± 0.38
A29S	-0.058 ± 0.07
A29L	-0.917 ± 0.068
A29Q	-0.527 ± 0.095
A29I	-0.727 ± 0.28

Variant	abundance fitness
A29D	-0.504 ± 0.16
A29V	-0.767 ± 0.063
A29N	-1.03 ± 0.29
E12P	-1.01 ± 0.14
E12T	-0.33 ± 0.1
E12C	-0.262 ± 0.063
E12N	-0.428 ± 0.19
E12A	-0.427 ± 0.055
E12W	-0.413 ± 0.097
E12G	-0.393 ± 0.05
E12Y	-0.454 ± 0.13
E12K	-0.504 ± 0.14
E12Q	-0.365 ± 0.14
E12V	-0.389 ± 0.057
E12L	-0.458 ± 0.073
E12S	-0.362 ± 0.093
E12H	-0.455 ± 0.25
E12M	-0.204 ± 0.08
E12D	-0.124 ± 0.054
E12I	-0.271 ± 0.091
E12R	-0.529 ± 0.05
W13I	-0.216 ± 0.13
W13A	-0.003 ± 0.061
W13N	0.24 ± 0.12

Variant	abundance fitness
W13D	-0.765 ± 0.074
W13C	0.011 ± 0.11
W13Y	-0.319 ± 0.13
W13R	-0.608 ± 0.05
W13G	-0.157 ± 0.045
W13L	-0.259 ± 0.045
W13F	-0.251 ± 0.13
W13H	-0.046 ± 0.12
W13E	-0.067 ± 0.093
W13M	-0.121 ± 0.076
W13V	-0.181 ± 0.05
W13Q	-0.021 ± 0.042
W13K	-0.528 ± 0.16
W13P	-0.994 ± 0.24
K25A	-0.334 ± 0.068
K25D	-0.741 ± 0.17
K25P	-0.648 ± 0.072
K25L	0.049 ± 0.067
K25W	-0.519 ± 0.11
K25Q	0.158 ± 0.089
K25N	-0.48 ± 0.21
K25S	-0.423 ± 0.055
K25I	0.118 ± 0.1
K25Y	-0.338 ± 0.11

Variant	abundance fitness
K25T	-0.074 ± 0.074
K25M	-0.126 ± 0.079
K25G	-0.789 ± 0.064
K25H	-0.031 ± 0.27
K25F	-0.272 ± 0.076
K25R	-0.098 ± 0.073
P18V	-0.822 ± 0.092
P18C	-0.314 ± 0.12
P18F	-1.11 ± 0.28
P18N	-0.696 ± 0.32
P18L	-0.968 ± 0.12
P18I	-0.776 ± 0.37
P18A	-0.358 ± 0.083
P18W	-0.491 ± 0.12
P18H	-0.442 ± 0.26
P18T	-0.915 ± 0.27
P18Q	-0.234 ± 0.065
P18S	-0.458 ± 0.07
P18E	-0.769 ± 0.2
P18M	-0.334 ± 0.067
P18D	-0.734 ± 0.11
P18K	-0.42 ± 0.1
P18G	-0.824 ± 0.092
R26T	-0.429 ± 0.19

Variant	abundance fitness
R26S	-0.182 ± 0.11
R26L	0.039 ± 0.069
R26E	0.037 ± 0.13
R26P	-0.836 ± 0.42
R26H	-0.121 ± 0.068
R26C	0.055 ± 0.25
R26K	-0.024 ± 0.082
R26Q	0.264 ± 0.18
R26N	0.069 ± 0.068
R26F	-0.085 ± 0.062
R26Y	-0.378 ± 0.26
R26W	-0.475 ± 0.16
R26I	-0.382 ± 0.25
R26V	0.055 ± 0.048
R11P	-0.958 ± 0.11
R11Y	0.097 ± 0.11
R11T	0.054 ± 0.071
R11W	-0.129 ± 0.078
R11V	-0.249 ± 0.064
R11Q	0.268 ± 0.078
R11M	-0.019 ± 0.1
R11S	-0.077 ± 0.058
R11N	0.27 ± 0.11
Q30V	-0.059 ± 0.048

Variant	abundance fitness
Q30E	-0.193 ± 0.12
Q30K	-0.03 ± 0.1
Q30M	-0.006 ± 0.073
Q30D	-0.064 ± 0.085
Q30C	-0.301 ± 0.11
Q30F	-0.239 ± 0.11
Q30P	-0.893 ± 0.19
Q30T	-0.051 ± 0.084
Q30G	-0.276 ± 0.065
Q30I	0.036 ± 0.11
Q30N	-0.374 ± 0.17
Q30A	-0.219 ± 0.089
Q30H	-0.205 ± 0.15
Q30R	-0.365 ± 0.059
Q30L	-0.25 ± 0.046
Q30Y	-0.381 ± 0.1
Q30W	0.057 ± 0.069
P20G	-0.887 ± 0.11
P20M	-0.817 ± 0.067
P20Q	-0.796 ± 0.35
P20Y	-0.559 ± 0.37
P20E	-0.969 ± 0.25
P20S	-0.724 ± 0.17
P20L	-0.411 ± 0.071

Variant	abundance fitness
P20V	-0.613 ± 0.079
P20A	-0.816 ± 0.073
P20C	-0.7 ± 0.34
P20R	-1.02 ± 0.14
P20T	-0.927 ± 0.44
P20I	-0.466 ± 0.23
P20H	-0.693 ± 0.39
P20K	-0.797 ± 0.31
P20W	-1.05 ± 0.16
D17H	-0.812 ± 0.064
D17K	-0.905 ± 0.074
D17M	-0.849 ± 0.1
D17S	-0.706 ± 0.046
D17C	-0.749 ± 0.1
D17Y	-0.97 ± 0.09
D17F	-0.829 ± 0.11
D17R	-0.899 ± 0.1
D17Q	-0.678 ± 0.11
D17L	-0.794 ± 0.063
D17V	-0.934 ± 0.098
D17W	-0.912 ± 0.097
D17E	-0.643 ± 0.15
D17A	-0.998 ± 0.081
D17I	-1.01 ± 0.16

Variant	abundance fitness
D17P	-0.852 ± 0.06
D17T	-0.914 ± 0.07
Y19E	-0.41 ± 0.06
Y19G	-0.867 ± 0.097
Y19A	-0.526 ± 0.091
Y19M	-0.312 ± 0.092
Y19W	0.052 ± 0.1
Y19L	-0.488 ± 0.088
Y19S	-0.508 ± 0.064
Y19V	-0.625 ± 0.094
Y19H	-0.364 ± 0.19
Y19I	-0.366 ± 0.34
Y19R	-0.177 ± 0.049
Y19Q	-0.414 ± 0.051
Y19N	-0.132 ± 0.085
Y19C	-0.469 ± 0.13
Y19P	-0.673 ± 0.17
Y19F	-0.138 ± 0.068
Y19T	-0.088 ± 0.082
Y19K	-0.239 ± 0.1
S23G	-0.328 ± 0.088
S23Y	-0.726 ± 0.17
S23L	-0.276 ± 0.094
S23M	-0.257 ± 0.1

Variant	abundance fitness
S23N	-0.175 ± 0.17
S23W	-0.517 ± 0.14
S23K	-0.529 ± 0.092
S23E	0.186 ± 0.1
S23T	-0.436 ± 0.14
S23V	-0.35 ± 0.067
S23A	0.012 ± 0.077
S23R	-0.813 ± 0.1
S23H	-0.523 ± 0.2
S23F	-0.272 ± 0.16
S23D	0.038 ± 0.13
S23I	-0.579 ± 0.14
S23C	-0.444 ± 0.15
S23Q	-0.028 ± 0.06
L15A	0.023 ± 0.082
L15C	0.49 ± 0.15
L15I	-0.019 ± 0.23
L15S	-0.03 ± 0.063
L15K	0.003 ± 0.064
L15G	-0.112 ± 0.072
L15Y	-0.185 ± 0.26
L15D	-0.418 ± 0.23
L15F	-0.651 ± 0.28
L15R	-0.106 ± 0.056

Variant	abundance fitness
L15P	-0.922 ± 0.19
L15N	0.153 ± 0.18
L15Q	-0.025 ± 0.066
L15V	0.037 ± 0.05
L15E	-0.067 ± 0.087
E27N	-0.683 ± 0.44
E27W	-0.231 ± 0.083
E27M	-0.696 ± 0.17
E27F	-0.318 ± 0.18
E27L	-0.483 ± 0.1
E27A	-0.207 ± 0.08
E27G	-0.805 ± 0.1
E27C	-0.441 ± 0.24
E27D	-0.194 ± 0.073
E27V	-0.731 ± 0.12
E27K	-0.71 ± 0.23
E27P	-0.845 ± 0.32
E27T	-0.513 ± 0.12
E27Q	-0.758 ± 0.39
E27S	-0.679 ± 0.14
E27H	-0.773 ± 0.25
E27R	-0.437 ± 0.061
L28E	-0.808 ± 0.15
L28M	-0.04 ± 0.075

Variant	abundance fitness
L28G	-0.883 ± 0.08
L28S	-0.981 ± 0.13
L28R	-0.765 ± 0.06
L28V	-0.378 ± 0.052
L28P	-0.958 ± 0.26
L28H	-0.903 ± 0.1
L28W	-0.788 ± 0.15
L28C	-0.79 ± 0.19
L28Y	-0.124 ± 0.13
L28I	0.064 ± 0.07
L28Q	-0.88 ± 0.26
L28F	-0.442 ± 0.14
Y14M	-0.825 ± 0.23
Y14W	-0.847 ± 0.19
Y14V	-0.838 ± 0.095
Y14Q	-0.918 ± 0.1
Y14H	-0.974 ± 0.23
Y14D	-0.882 ± 0.086
Y14A	-0.987 ± 0.12
Y14T	-1.06 ± 0.39
Y14I	-0.64 ± 0.095
Y14E	-0.788 ± 0.14
Y14R	-0.821 ± 0.15
Y14L	-0.634 ± 0.062

Variant	abundance fitness
Y14P	-0.983 ± 0.14
Y14G	-0.571 ± 0.072
Y14F	-0.071 ± 0.06
Y14K	-0.683 ± 0.19
Y14C	-0.994 ± 0.13
Y14S	-0.888 ± 0.099
K24F	-0.984 ± 0.13
K24H	-0.493 ± 0.097
K24V	-0.13 ± 0.076
K24A	-0.009 ± 0.063
K24W	-0.556 ± 0.069
K24G	-0.374 ± 0.074
K24N	-0.281 ± 0.099
K24C	-0.462 ± 0.14
K24E	-0.188 ± 0.051
K24Q	0.074 ± 0.054
K24P	-0.864 ± 0.08
K24I	-0.051 ± 0.091
K24S	-0.192 ± 0.059
K24D	-0.197 ± 0.068
K24Y	-0.714 ± 0.069
K24M	-0.139 ± 0.084
K24T	-0.058 ± 0.048
K24R	-0.104 ± 0.058

Variant	abundance fitness
A31K	-0.364 ± 0.14
A31G	-0.65 ± 0.058
A31C	-0.287 ± 0.082
A31I	0.253 ± 0.12
A31D	-0.888 ± 0.32
A31F	0.262 ± 0.11
A31M	-0.008 ± 0.086
A31H	-0.514 ± 0.14
A31E	-0.14 ± 0.056
A31L	0.068 ± 0.059
Q16R	-0.172 ± 0.068
Q16L	0.421 ± 0.12
Q16Y	-0.12 ± 0.32
Q16W	-0.727 ± 0.38
Q16A	-0.027 ± 0.12
Q16F	-0.27 ± 0.31
Q16M	-0.253 ± 0.14
Q16S	-0.127 ± 0.056
Q16C	-0.495 ± 0.29
Q16P	-0.782 ± 0.15
Q16H	-0.406 ± 0.1
Q16V	-0.067 ± 0.1
